In the supplement of paper PMC11246515:
± gives the standard deviation of the averaged measurements.

Assay: total protein half-life in vivo (active degradation + dilution); higher = more stable protein
[1] = E. coli NCM3722 delta-clpP delta-lon delta-hslV, growth: N-lim chemostat, doubling time 6 h
[2] = E. coli NCM3722 delta-clpP, growth: N-lim chemostat, doubling time 6 h
[3] = E. coli NCM3722 delta-hslV, growth: N-lim chemostat, doubling time 6 h
[4] = E. coli NCM3722 delta-lon, growth: N-lim chemostat, doubling time 6 h
[5] = E. coli NCM3722 delta-smpB, growth: N-lim chemostat, doubling time 6 h
[6] = wild type E. coli NCM3722, growth: C-lim chemostat, doubling time 3 h
[7] = wild type E. coli NCM3722, growth: C-lim chemostat, doubling time 6 h
[8] = wild type E. coli NCM3722, growth: C-lim chemostat, doubling time 12 h
[9] = wild type E. coli NCM3722, growth: N-lim chemostat, doubling time 6 h
[10] = wild type E. coli NCM3722, growth: N-lim chemostat, doubling time 12 h
[11] = wild type E. coli NCM3722, growth: P-lim chemostat, doubling time 6 h
[12] = wild type E. coli NCM3722, growth: P-lim chemostat, doubling time 12 h

Sequence	total protein half-life in vivo [1] [h]	total protein half-life in vivo [2] [h]	total protein half-life in vivo [3] [h]	total protein half-life in vivo [4] [h]	total protein half-life in vivo [5] [h]	total protein half-life in vivo [6] [h]	total protein half-life in vivo [7] [h]	total protein half-life in vivo [8] [h]	total protein half-life in vivo [9] [h]	total protein half-life in vivo [10] [h]	total protein half-life in vivo [11] [h]	total protein half-life in vivo [12] [h]
MAQFVYTMHRVGKVVPPKRHILKNISLSFFPGAKIGVLGLNGAGKSTLLRIMAGIDKDIEGEARPQPDIKIGYLPQEPQLNPEHTVRESIEEAVSEVVNALKRLDEVYALYADPDADFDKLAAEQGRLEEIIQAHDGHNLNVQLERAADALRLPDWDAKIANLSGGERRRVALCRLLLEKPDMLLLDEPTNHLDAESVAWLERFLHDFEGTVVAITHDRYFLDNVAGWILELDRGEGIPWEGNYSSWLEQKDQRLAQEASQEAARRKSIEKELEWVRQGTKGRQSKGKARLARFEELNSTEYQKRNETNELFIPPGPRLGDKVLEVSNLRKSYGDRLLIDDLSFSIPKGAIVGIIGPNGAGKSTLFRMISGQEQPDSGTITLGETVKLASVDQFRDSMDNSKTVWEEVSGGLDIMKIGNTEMPSRAYVGRFNFKGVDQGKRVGELSGGERGRLHLAKLLQVGGNMLLLDEPTNDLDIETLRALENALLEFPGCAMVISHDRWFLDRIATHILDYQDEGKVEFFEGNFTEYEEYKKRTLGADALEPKRIKYKRIAK [P0A9W3]	4.99 ± 0.079	5.16 ± 1.3	4.696 ± 0.0076	4.99 ± 0.28	4.57 ± 0.13	3.142 ± 0.022	5.61 ± 0.25	10.3 ± 0.59	4.514 ± 0.025	7.31 ± 0.33	5.748 ± 0.023	11.6 ± 0.28
MAQGTLYIVSAPSGAGKSSLIQALLKTQPLYDTQVSVSHTTRQPRPGEVHGEHYFFVNHDEFKEMISRDAFLEHAEVFGNYYGTSREAIEQVLATGVDVFLDIDWQGAQQIRQKMPHARSIFILPPSKIELDRRLRGRGQDSEEVIAKRMAQAVAEMSHYAEYDYLIVNDDFDTALTDLKTIIRAERLRMSRQKQRHDALISKLLAD	4.92 ± 0.11	4.94 ± 0.094	4.492 ± 0.0085	4.85 ± 0.71	4.493 ± 0.03	2.78 ± 0.075	6.12 ± 1.5	8.87 ± 3.6	5.11 ± 0.12	8.324 ± 0.018	5.66 ± 0.11	11.8 ± 0.35
MAQHTVYFPDAFLTQMREAMPSTLSFDDFLAACQRPLRRSIRVNTLKISVADFLQLTAPYGWTLTPIPWCEEGFWIERDNEDALPLGSTAEHLSGLFYIQEASSMLPVAALFADGNAPQRVMDVAAAPGSKTTQISARMNNEGAILANEFSASRVKVLHANISRCGISNVALTHFDGRVFGAAVPEMFDAILLDAPCSGEGVVRKDPDALKNWSPESNQEIAATQRELIDSAFHALRPGGTLVYSTCTLNQEENEAVCLWLKETYPDAVEFLPLGDLFPGANKALTEEGFLHVFPQIYDCEGFFVARLRKTQAIPALPAPKYKVGNFPFSPVKDREAGQIRQAATGVGLNWDENLRLWQRDKELWLFPVGIEALIGKVRFSRLGIKLAETHNKGYRWQHEAVIALASPDNMNAFELTPQEAEEWYRGRDVYPQAAPVADDVLVTFQHQPIGLAKRIGSRLKNSYPRELVRDGKLFTGNA	4.91 ± 0.059	4.53 ± 0.36	4.4 ± 0.12	5.21 ± 0.62	4.38 ± 0.21	2.99 ± 0.3	5.79 ± 1.4	9.34 ± 2.6	4.63 ± 0.14	8.3 ± 0.63	4.78 ± 1.1	9.91 ± 0.92
MAQRDYVRRSQPAPSRRKKSTSRKKQRNLPAVSPAMVAIAAAVLVTFIGGLYFITHHKKEESETLQSQKVTGNGLPPKPEERWRYIKELESRQPGVRAPTEPSAGGEVKTPEQLTPEQRQLLEQMQADMRQQPTQLVEVPWNEQTPEQRQQTLQRQRQAQQLAEQQRLAQQSRTTEQSWQQQTRTSQAAPVQAQPRQSKPASSQQPYQDLLQTPAHTTAQSKPQQAAPVARAADAPKPTAEKKDERRWMVQCGSFRGAEQAETVRAQLAFEGFDSKITTNNGWNRVVIGPVKGKENADSTLNRLKMAGHTNCIRLAAGG	4.824 ± 0.04	6.54 ± 1.9	5.87 ± 0.74	5.94 ± 0.43	4.76 ± 0.2	3 ± 0.038	5.351 ± 0.053	9.17 ± 0.79	5.27 ± 0.25	10.2 ± 0.24	4.421 ± 0.02	9.11 ± 0.63
MAQRIFTLILLLCSTSVFAGLFDAPGRSQFVPADQAFAFDFQQNQHDLNLTWQIKDGYYLYRKQIRITPEHAKIADVQLPQGVWHEDEFYGKSEIYRDRLTLPVTINQASAGATLTVTYQGCADAGFCYPPETKTVPLSEVVANNAAPQPVSVPQQEQPTAQLPFSALWALLIGIGIAFTPCVLPMYPLISGIVLGGKQRLSTARALLLTFIYVQGMALTYTALGLVVAAAGLQFQAALQHPYVLIGLAIVFTLLAMSMFGLFTLQLPSSLQTRLTLMSNRQQGGSPGGVFVMGAIAGLICSPCTTAPLSAILLYIAQSGNMWLGGGTLYLYALGMGLPLMLITVFGNRLLPKSGPWMEQVKTAFGFVILALPVFLLERVIGDVWGLRLWSALGVAFFGWAFITSLQAKRGWMRIVQIILLAAALVSVRPLQDWAFGATHTAQTQTHLNFTQIKTVDELNQALVEAKGKPVMLDLYADWCVACKEFEKYTFSDPQVQKALADTVLLQANVTANDAQDVALLKHLNVLGLPTILFFDGQGQEHPQARVTGFMDAETFSAHLRDRQP	6.33 ± 0.17	6.16 ± 0.66	5.61 ± 0.96	6.37 ± 0.69	5.76 ± 0.13	–	5.22 ± 0.15	13.2 ± 1	6.08 ± 0.72	11.9 ± 0.37	5.82 ± 0.19	12.35 ± 0.1
MAQRVQLTATVSENQLGQRLDQALAEMFPDYSRSRIKEWILDQRVLVNGKVCDKPKEKVLGGEQVAINAEIEEEARFEPQDIPLDIVYEDEDIIIINKPRDLVVHPGAGNPDGTVLNALLHYYPPIADVPRAGIVHRLDKDTTGLMVVAKTVPAQTRLVESLQRREITREYEAVAIGHMTAGGTVDEPISRHPTKRTHMAVHPMGKPAVTHYRIMEHFRVHTRLRLRLETGRTHQIRVHMAHITHPLVGDPVYGGRPRPPKGASEAFISTLRKFDRQALHATMLRLYHPISGIEMEWHAPIPQDMVELIEVMRADFEEHKDEVDWL	5.82 ± 0.6	5.7 ± 0.94	5.65 ± 0.66	5.51 ± 0.46	4.66 ± 0.21	3.66 ± 0.34	5.83 ± 0.07	9.95 ± 1.4	5.63 ± 0.2	8.47 ± 0.64	5.72 ± 0.12	11.2 ± 0.25
MAQVINTNSLSLITQNNINKNQSALSSSIERLSSGLRINSAKDDAAGQAIANRFTSNIKGLTQAARNANDGISVAQTTEGALSEINNNLQRVRELTVQATTGTNSESDLSSIQDEIKSRLDEIDRVSGQTQFNGVNVLAKNGSMKIQVGANDNQTITIDLKQIDAKTLGLDGFSVKNNDTVTTSAPVTAFGATTTNNIKLTGITLSTEAATDTGGTNPASIEGVYTDNGNDYYAKITGGDNDGKYYAVTVANDGTVTMATGATANATVTDANTTKATTITSGGTPVQIDNTAGSATANLGAVSLVKLQDSKGNDTDTYALKDTNGNLYAADVNETTGAVSVKTITYTDSSGAASSPTAVKLGGDDGKTEVVDIDGKTYDSADLNGGNLQTGLTAGGEALTAVANGKTTDPLKALDDAIASVDKFRSSLGAVQNRLDSAVTNLNNTTTNLSEAQSRIQDADYATEVSNMSKAQIIQQAGNSVLAKANQVPQQVLSLLQG	> 8	–	> 8	> 8	> 8	0.717 ± 0.2	0.724 ± 0.37	0.956 ± 0.59	6.3 ± 0.12	–	> 8	> 16
